# According to patent publication US20050100540A1, “Platelet-activating factor acetylhydrolase” (priority 1993, published 2005):
# Where a chain is given by its changes, count along the chain named. In names and notes the source's numbering stands.
# B1: pUC trp AH Met1: PAF-AH from entire coding sequence beginning at the initiating methionine, E. coli, trp promoter (protein, UniProt Q13093 1-441, looked up)
# chain: MVPPKLHVLFCLCGCLAVVYPFDWQYINPVAHMKSSAWVNKIQVLMAAASFGQTKIPRGNGPYSVGCTDLMFDHTNKGTFLRLYYPSQDNDRLDTLWIPNKEYFWGLSKFLGTHWLMGNILRLLFGSMTTPANWNSPLRPGEKYPLVVFSHGLGAFRTLYSAIGIDLASHGFIVAAVEHRDRSASATYYFKDQSAAEIGDKSWLYLRTLKQEEETHIRNEQVRQRAKECSQALSLILDIDHGKPVKNALDLKFDMEQLKDSIDREKIAVIGHSFGGATVIQTLSEDQRFRCGIALDAWMFPLGDEVYSRIPQPLFFINSEYFQYPANIIKMKKCYSPDKERKMITIRGSVHQNFADFTFATGKIIGHMLKLKGDIDSNVAIDLSNKASLAFLQKHLGLHKDFDQWDCLIEGDDENLIPGTNINTTNQHIMLQNSSGIEKYN
# modifications: full-length
# B2: V279F: PAF-AH with phenylalanine for valine at position 279, mutation of PAF-AH deficient individuals, expressed in E. coli (protein)
# chain: B1 chain with V279F
# B3: D304A: PAF-AH amino acid substitution product expressed in E. coli (protein)
# chain: B1 chain with D304A
# B4: C407S: PAF-AH cysteine to serine mutant expressed in E. coli (protein)
# chain: B1 chain with C407S
# B5: S108A: PAF-AH amino acid substitution product expressed in E. coli (protein)
# chain: B1 chain with S108A
# B6: H395A, H399A: PAF-AH double amino acid substitution product expressed in E. coli (protein)
# chain: B1 chain with H395A, H399A
# B7: C291S: PAF-AH cysteine to serine mutant expressed in E. coli (protein)
# chain: B1 chain with C291S
# B8: C229S: PAF-AH cysteine to serine mutant expressed in E. coli (protein)
# chain: B1 chain with C229S
# B9: D338A: PAF-AH amino acid substitution product expressed in E. coli (protein)
# chain: B1 chain with D338A
# B10: C334S: PAF-AH cysteine to serine mutant expressed in E. coli (protein)
# chain: B1 chain with C334S
# B11: D286N: PAF-AH amino acid substitution product expressed in E. coli (protein)
# chain: B1 chain with D286N
# B12: H351A: PAF-AH amino acid substitution product expressed in E. coli (protein)
# chain: B1 chain with H351A
# B13: D296A: PAF-AH amino acid substitution product expressed in E. coli (protein)
# chain: B1 chain with D296A
# B14: S273A: PAF-AH amino acid substitution product expressed in E. coli (protein)
# chain: B1 chain with S273A
# B15: D286A: PAF-AH amino acid substitution product expressed in E. coli (protein)
# chain: B1 chain with D286A
# B16: C67S: PAF-AH cysteine to serine mutant expressed in E. coli (protein)
# chain: B1 chain with C67S
# B17: Wild type: Wild type human PAF-AH expressed in E. coli, reference of Table 8 (protein, UniProt Q13093 22-441, looked up)
# Platelet-activating factor …: FDWQYINPVAHMKSSAWVNKIQVLMAAASFGQTKIPRGNGPYSVGCTDLMFDHTNKGTFLRLYYPSQDNDRLDTLWIPNKEYFWGLSKFLGTHWLMGNILRLLFGSMTTPANWNSPLRPGEKYPLVVFSHGLGAFRTLYSAIGIDLASHGFIVAAVEHRDRSASATYYFKDQSAAEIGDKSWLYLRTLKQEEETHIRNEQVRQRAKECSQALSLILDIDHGKPVKNALDLKFDMEQLKDSIDREKIAVIGHSFGGATVIQTLSEDQRFRCGIALDAWMFPLGDEVYSRIPQPLFFINSEYFQYPANIIKMKKCYSPDKERKMITIRGSVHQNFADFTFATGKIIGHMLKLKGDIDSNVAIDLSNKASLAFLQKHLGLHKDFDQWDCLIEGDDENLIPGTNINTTNQHIMLQNSSGIEKYN
# Test: PAF-AH activity of E. coli constructs with extended amino termini (lysate, media)
# Format: biochemical
# Settings: E. coli lysate, trp promoter
# Method: PAF-AH activity in transfectant supernatants was determined by the method of Stafforini et al. (1990), supra, with the following modifications. Briefly, PAF-AH activity was determined by measuring the hydrolysis of ^3H-acetate from [acetyl-^3H) PAF (New England Nuclear, Boston, Mass.). The aqueous free ^3H-acetate was separated from labeled substrate by reversed-phase column chromatography over octadecylsilica gel cartridges (Baker Research Products, Phillipsburg, Pa.). Assays were carried out using 10 μl transfectant supernatant in 0.1M Hepes buffer, pH 7.2, in a reaction volume of 50 μl. A total of 50 pmoles of substrate were used per reaction with a ratio of 1:5 labeled: cold PAF. Reactions were incubated for 30 minutes at 37° C. and stopped by the addition of 40 μl of 10M acetic acid. The solution was then washed through the octadecylsilica gel cartridges which were then rinsed with 0.1M sodium acetate. The aqueous eluate from each sample was collected and counted in a liquid scintillation counter for one minute. Enzyme activity was expressed in counts per minute.
# and encompassed the termination codon of sAH 406-3 and contained an EcoRV cloning site. PCR reactions were performed essentially as described in Example 3. The resulting PCR product was digested with XbaI and EcoRV and subcloned into a pBR322 vector containing the Trp promoter [deBoer et al., PNAS. 80:21-25 (1983)] immediately upstream of the cloning site. E. coli strain XL-1 Blue was transformed with the expression construct and cultured in L broth containing 100 μg/ml of carbenicillin. Transformants from overnight cultures were pelleted and resuspended in lysis buffer containing 50 mM Tris-HCl pH 7.5, 50 mM NaCl, 10 mM CHAPS, 1 mM EDTA, 100 μg/ml lysozyme, and 0.05 trypsin-inhibiting units (TIU)/ml Aprotinin. Following a 1 hour incubation on ice and sonication for 2 minutes, the lysates were assayed for PAF-AH activity by the method described in Example 4. E. coli transformed with the expression construct (designated trp AH) generated a product with PAF-AH activity.
# Several E. coli expression constructs were also evaluated which produce PAF-AH with extended amino termini. The N-terminus of natural plasma PAF-AH was identified as Ile42 by amino acid sequencing (Example 2). […] Acids Res., 14:4683-4690 (1986)]. Presumably a more classical signal sequence (M1-A17) is recognized by the cellular secretion system, followed by endoproteolytic cleavage. The entire coding sequence for PAF-AH beginning at the initiating methionine (nucleotides 162 to 1487 of SEQ ID NO: 7) was engineered for expression in E. coli using the trp promoter. […] Another expression construct, beginning at Val18 (nucleotides 213 to-1487 of SEQ ID NO: 7), produced active PAF-AH at about one third the level of the original construct.
row,Molecule,"PAF-AH activity, Lysate [U/ml/OD600]"
1,B1,3.1

# Same assay, conditions: E. coli media, trp promoter
row,Molecule,"PAF-AH activity, Media [U/ml/OD600]"
1,B1,0.003

# Test: PAF-AH activity of amino acid substitution products expressed in E. coli
# Format: biochemical
# Settings: control construct lacking the mutation fully active
# Source text: By site-directed mutagenesis and PCR, individual codons of the human PAF-AH coding sequence were modified to encode alanine residues and were expressed in E. coli. […] The distances between active site residues is similar for PAF-AH (Ser to Asp, 23 amino acids; Ser to His, 78 amino acids) and other lipases. […] Cysteines are often critical for the functional integrity of proteins because of their capacity to form disulfide bonds. The plasma PAF-AH enzyme contains five cysteines. To determine whether any of the five is critical for enzyme actvity, each cysteine was mutated individually to a serine and the resulting mutants were expressed in E. coli. As shown below in Table 8, a significant but not total loss of PAF-AH activity resulted from the conversion of either Cys229, r Cys291 to serine. Therefore, these cysteines appear to be necessary for full PAF-AH activity. Other point mutations had little or no effect on PAF-AH catalytic activity. In Table 8, “++++” represent wild type PAF-AH activity of about 40-60 U/ml/OD600, “+++” represents about 20-40 U/ml/OD600 activity, “++” represents about 10-20 U/ml/OD600 activity, “+” represents 1-10 U/ml/OD600 activity, and “−” indicates <1 U/ml/OD600 activity.
# To test whether this mutation crippled the enzyme, an E. coli expression construct containing the mutation was generated by methods similar to that described in Example 10. […] This amino acid substitution presumably results in a structural modification which causes the observed deficiency of activity and lack of immunoreactivity with the PAF-AH antibodies of the invention.
row,Molecule,PAF-AH activity of E. coli expression construct containing the mutation
1,B2,no PAF-AH activity

# Same assay, conditions: point mutants expressed in E. coli
row,Molecule,PAF-AH activity
1,B3,++++ (“++++” represent wild type PAF-AH activity of about 40-60 U/ml/OD600)
2,B4,+++ (“+++” represents about 20-40 U/ml/OD600 activity)
3,B5,++++ (“++++” represent wild type PAF-AH activity of about 40-60 U/ml/OD600)
4,B6,++++ (“++++” represent wild type PAF-AH activity of about 40-60 U/ml/OD600)
5,B7,+ (“+” represents 1-10 U/ml/OD600 activity)
6,B8,+ (“+” represents 1-10 U/ml/OD600 activity)
7,B9,++++ (“++++” represent wild type PAF-AH activity of about 40-60 U/ml/OD600)
8,B10,++++ (“++++” represent wild type PAF-AH activity of about 40-60 U/ml/OD600)
9,B11,++ (“++” represents about 10-20 U/ml/OD600 activity)
10,B12,− (“−” indicates <1 U/ml/OD600 activity)
11,B13,− (“−” indicates <1 U/ml/OD600 activity)
12,B14,− (“−” indicates <1 U/ml/OD600 activity)
13,B15,− (“−” indicates <1 U/ml/OD600 activity)
14,B16,+++ (“+++” represents about 20-40 U/ml/OD600 activity)
15,B17,++++ (“++++” represent wild type PAF-AH activity of about 40-60 U/ml/OD600)
